In patent publication US20230272016A1, “PEPTIDES FOR IMMUNOTHERAPY” (Second Genome, Inc., priority 2020, published 2023):
Entries after “also recorded” stand apart in the source; their conditions may differ.

Columns and labels:
Assay type in all cases: cell-based
[1] = system: CXCL10 production; assay: Three point dose response cytokine screen of microbiome peptides; settings: three point dose response curve
Description: Studies were performed to identify target peptides that induced CXCL10 production. Target peptides identified from human microbiomes isolated from humans that responded to anti-PD-1 therapy were each tested in a three point dose response curve with TNF-α, CXCL10, IL6, and INF-γ. […] Peptide sequences and characteristics can be found in Tables 13-15.

[2] = biological target: T1, CCR7 (Homo sapiens, UniProt P32248); assay: PathHunter β-Arrestin GPCR assay (gpcrMAX); settings: vehicle DMSO = 0%, control ligand = 100%
T1 construct: expressed in transfected cells
T1 sequence (P32248 25-378): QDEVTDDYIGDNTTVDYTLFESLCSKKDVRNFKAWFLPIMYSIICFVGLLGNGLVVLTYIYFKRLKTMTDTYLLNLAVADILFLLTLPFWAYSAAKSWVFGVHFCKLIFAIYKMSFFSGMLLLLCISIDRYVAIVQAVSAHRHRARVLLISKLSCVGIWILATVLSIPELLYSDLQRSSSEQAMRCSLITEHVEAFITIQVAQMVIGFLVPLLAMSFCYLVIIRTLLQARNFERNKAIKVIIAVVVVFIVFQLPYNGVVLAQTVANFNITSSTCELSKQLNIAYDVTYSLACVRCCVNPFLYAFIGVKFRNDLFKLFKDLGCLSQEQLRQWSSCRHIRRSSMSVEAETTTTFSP
Description: (§1) The PathHunter® β-Arrestin Assay monitored activation of a panel of 168 G-protein coupled receptors (GPCRs) with […] activation of the GPCR in agonist and antagonist mode.
(§2) where the test sample is the peptide, the vehicle control=DMSO (0% activity), and the control ligand=control compound (100% activity).
(§3) Peptides SG-3-00802 and SG-3-05021 were identified as an agonist, an antagonist, a PAM (Positive Allosteric Modulator), or an inverse-agonist. Agonist, antagonist, PAM, and inverse-agonist were identified according to the guidelines in Table 18. The basal activity/noise is a % activity of −20% to 20% for both agonist and antagonist modes. A PAM (Positive Allosteric Modulator) binds to a receptor, at a different site than the agonist, to change the receptor's response to the agonist. An inverse-Agonist is a binding partner with agonistic shutting down of basal activity in the cell. An antagonist antagonizes the activity of a particular binding partner.

[3] = biological target: T2, CXCR4 (Homo sapiens, UniProt P61073); assay: PathHunter β-Arrestin GPCR assay (gpcrMAX); settings: vehicle DMSO = 0%, control ligand = 100%
T2 construct: expressed in transfected cells
Description: as §1, §2, §3

[4] = biological target: T3, CXCR3 (Homo sapiens, UniProt P49682); assay: PathHunter β-Arrestin GPCR assay (gpcrMAX); settings: vehicle DMSO = 0%, control ligand = 100%
T3 sequence (P49682 1-368): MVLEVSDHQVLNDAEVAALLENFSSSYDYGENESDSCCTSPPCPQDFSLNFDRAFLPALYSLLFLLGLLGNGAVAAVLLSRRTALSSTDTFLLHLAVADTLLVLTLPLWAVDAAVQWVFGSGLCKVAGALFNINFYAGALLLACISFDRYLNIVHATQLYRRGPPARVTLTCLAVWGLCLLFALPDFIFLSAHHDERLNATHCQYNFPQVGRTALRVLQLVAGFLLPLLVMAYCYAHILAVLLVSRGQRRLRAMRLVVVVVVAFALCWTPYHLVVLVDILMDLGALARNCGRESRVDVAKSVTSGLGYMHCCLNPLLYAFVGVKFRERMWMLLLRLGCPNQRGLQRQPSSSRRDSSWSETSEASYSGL
Description: as §1, §2, §3

[5] = biological target: T3, CXCR3; assay: SelectScreen chemokine receptor U2OS agonist/antagonist assay; design: host or cells: CXCR3-bla U2OS; settings: CXCR3-bla U2OS cells; for SelectScreen Antagonist Mode: control agonist I-TAC (CXCL11) at EC80
Description: (§4) Peptides SG-3-00802 and SG-3-05021 were screened for agonist and antagonist activity of the chemokine receptors CCR7, CXCR3, and CXCR4.
(§5) In agonist assays, chemokine receptor expressing U2OS cells are thawed and resuspended in Assay Media (DMEM, 1% dialyzed FBS, 25 mM HEPES pH 7.3, 0.1 mM NEAA, 100 U/mL/100 μg/mL Pen/Strep) to a concentration of 312,500 cells/mL. 4 μL of a 10×serial dilution of I-TAC (control agonist starting concentration, 500 nM) or compounds are added to appropriate wells of a 384-well TC-Treated assay plate. 32 μL of cell suspension (10,000 cells) is added to each well. 4 μL of Assay Media is added to all wells to bring the final assay volume to 40 μL. The plate is incubated for 16-24 hours at 37° C./5% CO2 in a humidified incubator. 8 μL of 1 μM Substrate+Solution D Loading Solution is added to each well and the plate is incubated for 2 hours at room temperature. The plate is read on a fluorescence plate reader.
(§6) In antagonist assays, CXCR3-bla U2OS cells were thawed and prepared as described above for the Agonist assay. 4 μL of 10×compounds or assay media was added to appropriate wells of a TC-Treated assay plate. 32 μL of cell suspension was added to the wells and pre-incubated at 37° C./5% CO2 in a humidified incubator with compounds and control antagonist titration for 30 minutes. 4 μL of 10×control agonist I-TAC at the pre-determined EC80 concentration is added to wells containing the control antagonist or compounds. The plate is incubated for 16-24 hours at 37° C./5% CO2 in a humidified incubator. 8 μL of 1 μM Substrate+Solution D Loading Solution is added to each well and the plate is incubated for 2 hours at room temperature. The plate is read on a fluorescence plate reader.
Activity assays for CXCR4, CXCR3, and CCR7 were performed in agonist and antagonist mode for both SG-3-00802 and SG-3-05021 peptides. […] SG-3-00802 and SG-3-05021 may allow for a mechanism to enhance CXCR3 activation already shown to be a critical pathway in numerous publications as mediating anti-tumor treatment.

[6] = biological target: T1, CCR7; assay: as above; settings: CCR7 expressing U2OS cells
Description: as §4, §5, §6

[7] = biological target: T2, CXCR4; assay: as above; settings: CXCR4 expressing U2OS cells
Description: as §4, §5, §6

T2 sequence (P61073 whole entry): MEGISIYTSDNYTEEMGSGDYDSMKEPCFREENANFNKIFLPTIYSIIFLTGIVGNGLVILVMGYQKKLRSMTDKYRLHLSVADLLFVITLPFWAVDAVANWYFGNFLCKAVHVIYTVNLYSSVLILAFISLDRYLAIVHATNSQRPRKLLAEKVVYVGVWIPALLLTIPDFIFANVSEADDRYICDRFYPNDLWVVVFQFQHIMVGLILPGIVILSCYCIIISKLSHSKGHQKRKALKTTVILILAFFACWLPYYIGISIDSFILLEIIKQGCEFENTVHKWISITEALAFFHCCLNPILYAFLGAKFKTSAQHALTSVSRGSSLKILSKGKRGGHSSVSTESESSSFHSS

Sequence | CXCL10 induction [1] | % Agonist Activity (gpcrMAX Agonist Mode) [2] | % Antagonist Activity (gpcrMAX Antagonist Mode) [2] | % Agonist Activity (gpcrMAX Agonist Mode) [3] | % Antagonist Activity (gpcrMAX Antagonist Mode) [3] | % Agonist Activity (gpcrMAX Agonist Mode) [4] | % Antagonist Activity (gpcrMAX Antagonist Mode) [4] | SelectScreen Agonist Mode [5] | SelectScreen Antagonist Mode [5] | SelectScreen Agonist Mode [6] | SelectScreen Agonist Mode [7] | SelectScreen Antagonist Mode [7]
LGKTDWIEKYFKVKKEKIDKMQRFLQG [SG-3-05021, peptide from bacteroides.clarus.dsm.22519] | high CXCL10 induction | 0% | −18% | 1% | 10% | −4% | −20% | no agonistic activity and No | sensitized CXCR3; also recorded: Sensitizer | no agonistic activity and No | no agonistic activity and No | 
MKVRPSVKPMCEKCKIIRRKGRVMVICENPKHKQRQG [SG-3-00802, peptide from oscillibacter.sp t_155102] | high CXCL10 induction |  |  |  |  |  |  | weak agonistic activity and No | potent reverse antagonistic activity (sensitization); also recorded: sensitized CXCR3; also recorded: Sensitizer | weak agonistic activity and No | no agonistic activity and No | moderate antagonistic activity and no antagonistic activity and Yes
